T1: FGFR2b on SNU-16 and MFM-223 cells (human, UniProt P21802 22-821)
T1 chain: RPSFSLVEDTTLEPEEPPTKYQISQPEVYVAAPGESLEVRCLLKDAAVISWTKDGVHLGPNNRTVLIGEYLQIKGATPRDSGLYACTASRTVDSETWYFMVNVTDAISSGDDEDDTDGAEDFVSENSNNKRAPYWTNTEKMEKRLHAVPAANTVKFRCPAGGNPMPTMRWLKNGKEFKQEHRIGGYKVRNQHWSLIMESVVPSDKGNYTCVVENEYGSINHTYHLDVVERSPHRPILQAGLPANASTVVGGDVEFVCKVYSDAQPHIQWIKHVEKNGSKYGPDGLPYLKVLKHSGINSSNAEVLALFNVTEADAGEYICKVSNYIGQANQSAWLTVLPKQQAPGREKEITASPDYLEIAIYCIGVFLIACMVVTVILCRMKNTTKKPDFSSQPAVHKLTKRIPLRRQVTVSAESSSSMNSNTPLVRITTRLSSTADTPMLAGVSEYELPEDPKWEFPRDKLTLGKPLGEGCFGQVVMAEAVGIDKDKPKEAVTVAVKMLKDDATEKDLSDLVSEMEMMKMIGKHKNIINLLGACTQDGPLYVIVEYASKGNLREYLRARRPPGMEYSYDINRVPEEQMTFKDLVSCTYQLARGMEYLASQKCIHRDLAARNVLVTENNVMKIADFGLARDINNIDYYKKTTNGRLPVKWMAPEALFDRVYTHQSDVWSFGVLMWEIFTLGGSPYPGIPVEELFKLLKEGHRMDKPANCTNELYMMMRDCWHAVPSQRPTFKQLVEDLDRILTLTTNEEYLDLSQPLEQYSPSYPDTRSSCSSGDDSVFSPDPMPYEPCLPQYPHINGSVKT

T2: hFGFR2b.mmh (human)
T2 construct: also called Human FGFR2b with C-terminal myc-myc-hexahistidine tag
T2 chain: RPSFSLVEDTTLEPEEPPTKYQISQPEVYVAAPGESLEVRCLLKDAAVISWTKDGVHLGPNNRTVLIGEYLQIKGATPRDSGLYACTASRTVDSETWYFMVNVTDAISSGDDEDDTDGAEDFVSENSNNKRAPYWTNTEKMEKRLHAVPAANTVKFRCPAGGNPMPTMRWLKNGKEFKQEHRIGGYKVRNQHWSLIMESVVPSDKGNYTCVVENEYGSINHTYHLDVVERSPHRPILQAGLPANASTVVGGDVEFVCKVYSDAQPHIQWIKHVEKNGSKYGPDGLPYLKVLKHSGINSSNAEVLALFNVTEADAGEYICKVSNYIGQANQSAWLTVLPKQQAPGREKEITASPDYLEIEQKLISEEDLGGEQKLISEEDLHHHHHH

B1: mAb2-tubulysin 1ALP (antibody, V domains shown)
VH: QVQLVESGGGVVQPGKSLRLSCAASGFTFSNYGMHWVRQTPVKGLEWVTLIWYDGSNKYYTDSVKGRFTISRDNSKNTLYLQMNSLRSEDTAVYYCAREGNWNYGHAFDIWGQGTMVTVSS
VL: DIQMTQSPSTLSASVGDRVTITCRASQNIGNWLAWYQQKPGKAPNLLIYKASTLESGVPSRFSGSGSGTEFTLTISSLQPDDFATYNCQQYNSYSPTFGQGTKLEIKR
modifications: deglycosylated; Q295 carries azido-PEG3-amine clicked to Tubulysin 1A-LP; DAR 2.1 per antibody
notes: also called Anti FGFR2 mAb2-PEG3-N3-Tubulysin 1A-LP
B2: mAb2 (antibody, V domains shown)
VH: B1 VH
VL: B1 VL
notes: also called anti-FGFR2 antibody mAb2; mAb2 (Unconjugated)
B3: mAb2-maytansinoid 1ALP (antibody, V domains shown)
VH: B1 VH
VL: B1 VL
modifications: maytansinoid 1ALP (mc-VC-PAB-NMe-C3-May) linker-payload conjugated; residues not stated in Example 5; DAR 1.9 per antibody
notes: it is written on the heavy chain only for want of a better place; also called FGFR2 maytansinoid ADC
B4: mAb1-tubulysin 1ALP (antibody, human IgG4 S228P, kappa, V domains shown)
VH: QVQLVESGGGVVQPGRSLRLSCAASGFTFSSYGMHWVRQAPGKGLEWVAVIWYDGSNKYYADSVKGRFTISRDNSKNTLYLQMNSLRAEDTAVYYCAREESSASGVDYWGQGTLVTVSS
VL: EIVLTQSPGTLSLSPGERATLSCRASQSVSTRYLAWYQQKRGQAPRLLIYGASSRATGIPDRFSGSGSGTDFTLTISRLEPEDFAVYYCQEYGSSSITFGQGTRLEIKR
modifications: deglycosylated; Q295 carries azido-PEG3-amine clicked to Tubulysin 1A-LP; DAR 2.1 per antibody
notes: also called Anti FGFR2 mAb1-PEG3-N3-Tubulysin 1A-LP
B5: mAb1-maytansinoid 1ALP (antibody, V domains shown)
VH: B4 VH
VL: B4 VL
modifications: maytansinoid 1ALP (mc-VC-PAB-NMe-C3-May) linker-payload conjugated; residues not stated in Example 5; DAR 2.5 per antibody
notes: it is written on the heavy chain only for want of a better place
B6: mAb1 (antibody, human IgG4 S228P, kappa, V domains shown)
VH: B4 VH
VL: B4 VL
notes: also called anti-FGFR2 antibody mAb1; mAb1 (Unconjugated)
B7: Comp1 (antibody, INN chains, looked up, V domains shown)
VH: QVQLVQSGAEVKKPGSSVKVSCKASGYIFTTYNVHWVRQAPGQGLEWIGSIYPDNGDTSYNQNFKGRATITADKSTSTAYMELSSLRSEDTAVYYCARGDFAYWGQGTLVTVSS
VL: DIQMTQSPSSLSASVGDRVTITCKASQGVSNDVAWYQQKPGKAPKLLIYSASYRYTGVPSRFSGSGSGTDFTFTISSLQPEDIATYYCQQHSTTPYTFGQGTKLEIK

Legend:
[1] = target: T1, FGFR2b on SNU-16 and MFM-223 cells; test: cell-based or functional assay
hFGFR2b.mmh [2] = target: T2, hFGFR2b.mmh; test: SPR (Biacore), ADC captured by anti-human Fc, hFGFR2b-MMH as analyte, 25 C
Protocol: (§1) The equilibrium dissociation constants (KD values) for hFGFR2b.mmh binding to anti-FGFR2 antibodies conjugated with Tubulysin (“tubulysin 1ALP”), Auristatin (“auristatin LP1”), or mc-VC-PAB-NMe-C3-May (“maytansinoid 1ALP”) were determined using a real-time surface plasmon resonance biosensor assay on a Biacore 2000 or a Biacore 4000 instrument. The Biacore sensor surface was derivatized by amine coupling with a monoclonal mouse anti-human Fc antibody (REGN2567 or Jackson Cat. No #109-005-098) to capture anti-FGFR2 ADC and parent unmodified antibodies expressed with human constant regions. Biacore binding studies were performed in HBS-EP running buffer (0.01M HEPES pH 7.4, 0.15M NaCl, 3 mM EDTA, 0.05% v/v Surfactant P20). Human FGFR2b and Human FGFR2c were prepared in-house expressing a C-terminal myc-myc-hexahistidine tag (hFGFR2b-MMH—SEQ ID NO: 57; hFGFR2c-MMH—SEQ ID NO: 58). […] Association of hFGFR2b-MMH or hFGFR2c-MMH to each of the captured ADCs and monoclonal antibodies was monitored for 4 minutes. Subsequently, dissociation was monitored for 10 minutes in HBS-EP running buffer. Anti-human Fc surface was regenerated by a brief injection of 20 mM H₃PO₄. All binding kinetic experiments were performed at 25° C. Kinetic association (kₐ) and dissociation (kd) rate constants were determined by fitting the real-time sensorgrams to a 1:1 binding model using Scrubber 2.0c curve fitting software. All sensorgrams were double referenced by subtracting buffer injection sensorgram signal from the corresponding analyte sensorgram, thereby removing artifacts caused by dissociation of the antibody from the capture surface. Binding dissociation equilibrium constants (KD) and dissociative half-lives (t½) were calculated from the kinetic rate constants as: […]

[3] = target: T1, FGFR2b on SNU-16 and MFM-223 cells; test: cell-based or functional assay
hFGFR2b.mmh [4] = target: T2, hFGFR2b.mmh; test: SPR (Biacore), antibody captured by anti-human Fc, hFGFR2b-MMH as analyte, 25 C
Protocol: as §1

hFGFR2c.mmh = target: T3, hFGFR2c.mmh (human, UniProt P21802 22-377); test: SPR (Biacore), antibody captured by anti-human Fc, hFGFR2c-MMH as analyte, 25 C
T3 construct: also called Human FGFR2c with C-terminal myc-myc-hexahistidine tag
Protocol: The equilibrium dissociation constants (KD values) for hFGFR2b.mmh binding to anti-FGFR2 antibodies conjugated with Tubulysin (“tubulysin 1ALP”), Auristatin (“auristatin LP1”), or mc-VC-PAB-NMe-C3-May (“maytansinoid 1ALP”) were determined using a real-time surface plasmon resonance biosensor assay on a Biacore 2000 or a Biacore 4000 instrument. The Biacore sensor surface was derivatized by amine coupling with a monoclonal mouse anti-human Fc antibody (REGN2567 or Jackson Cat. No #109-005-098) to capture anti-FGFR2 ADC and parent unmodified antibodies expressed with human constant regions. Biacore binding studies were performed in HBS-EP running buffer (0.01M HEPES pH 7.4, 0.15M NaCl, 3 mM EDTA, 0.05% v/v Surfactant P20). […] Association of hFGFR2b-MMH or hFGFR2c-MMH to each of the captured ADCs and monoclonal antibodies was monitored for 4 minutes. Subsequently, dissociation was monitored for 10 minutes in HBS-EP running buffer. […] Kinetic association (kₐ) and dissociation (kd) rate constants were determined by fitting the real-time sensorgrams to a 1:1 binding model using Scrubber 2.0c curve fitting software. […] Binding dissociation equilibrium constants (KD) and dissociative half-lives (t½) were calculated from the kinetic rate constants as: […]

| Binder | IC50 (M), CellTiter-Glo cytotoxicity, MFM-223 cells, 6 days [1] [M] | IC50 (M), CellTiter-Glo cytotoxicity, SNU-16 cells, 6 days [1] [M] | Max % Kill, MFM-223 cells [1] [%] | Max % Kill, SNU-16 cells [1] [%] | Antigen Bound (RU) (hFGFR2b.mmh [2]) | t1/2 (hFGFR2b.mmh [2]) [min] | IC50 (M), cytotoxicity, SNU-16 monoculture, 5 days (bystander assay) [3] [M] | Max % Kill, SNU-16 monoculture (bystander assay) [3] [%] | Kd (hFGFR2b.mmh [4]) [nM] | koff (hFGFR2b.mmh [4]) [s⁻¹] | kon (hFGFR2b.mmh [4]) [M⁻¹ s⁻¹] | t1/2 (hFGFR2b.mmh [4]) [min] | Kd (hFGFR2b.mmh [2]) [nM] | binding result (hFGFR2c.mmh) | Antigen Bound (RU) (hFGFR2b.mmh [4]) | Antigen Bound (RU) (hFGFR2c.mmh) |
| --- | --- | --- | --- | --- | --- | --- | --- | --- | --- | --- | --- | --- | --- | --- | --- | --- |
| B1 | 6.36e-11 | 3.7e-11 | 90 | 95.3 | 32.7 | 9.8 | 2.73e-11 | 97.2 |  |  |  |  |  |  |  |  |
| B2 |  |  |  |  |  |  |  |  | 8.92 | 0.000447 | 50100 | 25.8 |  |  |  |  |
| B3 | 1.72e-10 | 2.06e-10 | 91.1 | 95 | 31.3 | 13.1 | 6.45e-10 | 94.8 |  |  |  |  | 12.8 |  |  |  |
| B4 | 1.25e-10 | 4.34e-11 | 91.1 | 95.4 | 36.4 | 7.4 | 6.69e-11 | 97.1 |  |  |  |  |  |  |  |  |
| B5 | 2.14e-10 | 2.68e-10 | 85.5 | 93.1 | 42.1 | 11.1 |  |  |  |  |  |  | 41.8 |  |  |  |
| B6 |  |  |  |  |  |  |  |  | 25 | 0.00104 | 41700 | 11.1 |  | no binding (tested: 30 nM (highest concentration injected)) |  |  |
| B7 |  |  |  |  |  |  |  |  | 60.8 | 0.00471 | 77400 | 2.5 |  |  | 68.3 | 0.6 |
